Source: US20220017612A1 (TILOS THERAPEUTICS, published 2022)

T1: human LAP-TGFβ2 overexpressed on HT1080 cells (human, UniProt P61812 21-414)
T1 construct: also called HT1080-huB2
T1 sequence: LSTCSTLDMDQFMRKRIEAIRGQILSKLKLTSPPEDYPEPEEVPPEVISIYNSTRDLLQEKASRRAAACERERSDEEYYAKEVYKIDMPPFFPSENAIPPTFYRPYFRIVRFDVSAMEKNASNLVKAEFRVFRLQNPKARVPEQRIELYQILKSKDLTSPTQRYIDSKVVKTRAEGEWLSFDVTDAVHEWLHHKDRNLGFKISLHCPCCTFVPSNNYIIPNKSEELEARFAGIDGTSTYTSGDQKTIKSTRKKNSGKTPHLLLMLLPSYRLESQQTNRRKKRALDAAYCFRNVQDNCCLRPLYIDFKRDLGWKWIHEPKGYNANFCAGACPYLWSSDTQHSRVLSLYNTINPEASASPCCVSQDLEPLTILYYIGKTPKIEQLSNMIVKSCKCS

T2: human LAP-TGFβ3 overexpressed on HT1080 cells (human, UniProt P10600 24-412)
T2 construct: also called HT1080-huB3
T2 sequence: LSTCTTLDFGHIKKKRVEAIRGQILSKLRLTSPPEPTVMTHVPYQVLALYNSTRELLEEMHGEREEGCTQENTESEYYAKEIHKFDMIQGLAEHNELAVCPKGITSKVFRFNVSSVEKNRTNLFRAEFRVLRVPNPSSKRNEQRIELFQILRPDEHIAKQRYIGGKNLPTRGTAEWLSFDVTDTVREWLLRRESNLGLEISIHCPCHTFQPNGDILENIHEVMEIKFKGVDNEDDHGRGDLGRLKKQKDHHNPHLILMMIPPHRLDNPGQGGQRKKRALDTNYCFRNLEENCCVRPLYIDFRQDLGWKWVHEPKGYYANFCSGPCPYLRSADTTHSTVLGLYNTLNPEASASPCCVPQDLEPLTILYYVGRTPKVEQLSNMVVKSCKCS

T3: fusion protein of a human IgG1 Fc domain and human LAP-TGFβ2 (human, UniProt P61812 21-414)
T3 construct: also called Fc-huB2; human LAP-TGFβ2-Fc
T3 sequence: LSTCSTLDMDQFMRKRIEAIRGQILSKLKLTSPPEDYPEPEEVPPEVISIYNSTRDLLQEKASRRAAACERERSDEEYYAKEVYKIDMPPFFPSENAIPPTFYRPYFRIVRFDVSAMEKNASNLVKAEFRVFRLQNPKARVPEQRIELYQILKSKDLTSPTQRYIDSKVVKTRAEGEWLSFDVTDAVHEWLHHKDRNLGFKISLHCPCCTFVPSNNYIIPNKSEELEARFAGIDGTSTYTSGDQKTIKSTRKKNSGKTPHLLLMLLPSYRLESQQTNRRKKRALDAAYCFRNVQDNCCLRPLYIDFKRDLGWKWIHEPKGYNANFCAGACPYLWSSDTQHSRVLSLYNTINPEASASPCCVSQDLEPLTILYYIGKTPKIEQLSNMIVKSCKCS


Columns and labels:
[1] = target: T1, human LAP-TGFβ2 overexpressed on HT1080 …; assay: flow cytometry titration, HT1080-huB2 cells
Method: (§1) This Example describes the binding of anti-LAP antibodies to LAP-TGFβ isoforms and LAP-TGFβ variants. In addition to antibodies 28G11_hIgG1, 22F9_hIgG1, and 20E6_hIgG1, anti-LAP antibodies 17G8_hIgG1, 24E3_hIgG1, and 2C9_(hyb) were also tested in this experiment. Briefly, 4×10⁵ each of (a) HT1080 cells, (b) HT1080 cells overexpressing human LAP-TGFβ1, (c) HT1080 cells overexpressing human LAP-TGFβ2, (d) HT1080 cells overexpressing human LAP-TGFβ3, (e) HT1080 cells overexpressing murine LAP-TGFβ1, (f) P3U1 cells, (g) P3U1 cells overexpressing LAP-TGFβ1 and GARP, and (h) P3U1 cells overexpressing LAP-TGFβ1 and LRRC33 were cultured in 96-well plates. The plates were centrifuged for 5 min at 1,500 rpm, liquid was removed, and cells were resuspended with 200 μL FACS buffer. The plates were centrifuged again, diluted primary antibody was added to each well, and the plates were incubated on ice for 20 minutes, followed by centrifugation. The cells were resuspended in 200 μL FACS buffer, centrifuged again, and resuspended in 50 μL diluted secondary antibody (Alexa647-anti-Human IgG or APC-anti-Mouse IgG). The plates were incubated on ice for 20 minutes in the dark, washed twice with 200 μL FACS buffer, and cells from each well (in 200 μL FACS buffer) were read on the Attune NXT instrument.

[2] = target: T2, human LAP-TGFβ3 overexpressed on HT1080 …; assay: flow cytometry titration, HT1080-huB3 cells
Method: as §1

[3] = target: T4, fusion protein of a human IgG1 Fc domain and human LAP-TGFβ1 (human, UniProt P01137 30-390); assay: BLI, 2:1 model, component 2
T4 construct: printed both as Fc-huB1 and LAP-TGFβ-Fc; also called Fc-huB1; Fc-human LAP
Method: A streptavidin-functionalized tip was equilibrated in binding buffer (10 mM sodium phosphate, 150 mM sodium chloride, 1% (w/v) bovine serum albumin, 0.05% (w/v) sodium azide, pH 7.4) and dipped in a 5 μg/mL solution of biotinylated antibody (i.e., 20E6_H0.2aL1_hIgG1, murine 16F4, or MHG8, a GARP-specific murine IgG2a described in Lienart et al. Science 2018; 362:952-956) in binding buffer for 30 seconds to load the tip with antibody. The antibody-loaded tip was then washed in binding buffer and placed in a solution containing 0-24 nM of a fusion protein containing a human IgG1 Fc domain fused to either human LAP-TGFβ1, the soluble GARP-LAP-TGFβ1 complex, or the soluble ECR3E-LAP-TGFβ1 complex. The antigen was allowed to bind to antibody for 5 minutes (association phase), and then the tip was moved to binding buffer (dissociation phase). The binding and dissociation data for 16F4 and MHG8 were well-fit by a 1:1 binding model. The association and dissociation phases for 20E6_H0.2aL1_hIgG1 antibody were fit to a 2:1 heterogenous ligand binding model to determine the binding rate constants.
As shown in FIG. 24 and Table 21, the 20E6_H0.2aL1_hIgG1 antibody bound to free LAP-TGFβ1 and the soluble GARP-LAP-TGFβ1 complex with nanomolar affinity, but not to the ECR3E-LAP-TGFβ1 complex. As expected, the anti-GARP antibody (MHG8) bound to the GARP-LAP-TGFβ1 complex, but not to free LAP-TGFβ1 or the ECR3E-LAP-TGFβ1 complex. 16F4 bound tightly to all three constructs.

[4] = target: T3, fusion protein of a human IgG1 Fc …; assay: bio-layer interferometry, biotinylated antibody on streptavidin tip, Fc-huB2 in solution
Method: The 20E6_H0.2aL1_IgG1 antibody was biotinylated using EZ-Link SulfoNHS-LC-Biotin (ThermoFisher). A streptavidin-functionalized tip was equilibrated in binding buffer (10 mM sodium phosphate, 150 mM sodium chloride, 1% (w/v) bovine serum albumin, 0.05% (w/v) sodium azide, pH 7.4) and dipped in a 10 μg/mL solution of biotinylated anti-LAP in binding buffer for 30 seconds to load the tip with antibody. The antibody-loaded tip was then washed in binding buffer and placed in a solution containing 0-24 nM of a fusion protein having a human IgG1 Fc domain fused to either human LAP-TGFβ1, human LAP-TGFβ2 or human LAP-TGFβ3. The antigen was allowed to bind to antibody for 5 minutes (association phase), and then the tip was moved to binding buffer (dissociation phase). The association and dissociation phases were fit to a 2:1 heterogenous ligand binding model to determine the binding rate constants. As shown in FIG. 21A and Table 17, 20E6_H0.2aL1_IgG1 bound with sub-nanomolar affinity to human LAP-TGFβ1, but not to human LAP-TGFβ2 (FIG. 21B) or LAP-TGFβ3 (FIG. 21C).

T4 sequence (P01137 30-390 limits assumed): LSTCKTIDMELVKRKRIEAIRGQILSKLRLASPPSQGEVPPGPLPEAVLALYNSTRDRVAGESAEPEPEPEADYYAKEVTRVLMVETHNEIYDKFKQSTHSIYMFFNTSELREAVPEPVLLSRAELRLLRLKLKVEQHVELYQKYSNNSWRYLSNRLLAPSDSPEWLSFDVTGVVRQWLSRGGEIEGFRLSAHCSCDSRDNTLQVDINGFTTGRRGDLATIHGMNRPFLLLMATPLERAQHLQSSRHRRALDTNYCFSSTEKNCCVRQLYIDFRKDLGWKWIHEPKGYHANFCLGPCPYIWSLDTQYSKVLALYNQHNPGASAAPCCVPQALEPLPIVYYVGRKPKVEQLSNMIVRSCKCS

| binding result [1] | binding result [2] | Kd [3] [nM] | koff [3] [s⁻¹] | kon [3] [M⁻¹ s⁻¹] | binding result [4] | Binder |
| --- | --- | --- | --- | --- | --- | --- |
| no binding (tested: about 800 ng/well) | no binding (tested: about 800 ng/well) |  |  |  |  | 22F9_hIgG1 (antibody, V domains shown) VH: QVQLQQPGAELVKPGASVKLSCKASGYTFTSYWMHWVKQRPGQGLEWIGMIHPNSGSTNYNEKFKSKATLTVDKSSSTAYMQLSSLTSEDSAVYYCAYYDYDGFFDVWGTGTTVTVSS VL: DIVLTQSPASLDVSLGQRATISCRASKSVSTSGYSYMHWYQQKSGQPPKLLIYLASNLESGVPARFSGSGSGTHFTLNIHPVEEEDAATYYCQHSRELPYTFGGGTKLEIK |
|  |  | 0.96 | 0.00092 | 960000 | no binding (tested: 24 nM) | 20E6_H0.2aL1_hIgG1 (antibody, also called 20E6_H0.2aL1_IgG1; humanized 20E6) heavy: not shown light: DIQMTQSPSSLSASVGDRVTITCRASQDITNYLNWYQQKPGKAVKLLIYYTSRLHSGVPSRFSGSGSGTDYTLTISSLQPEDFATYFCQQGDTLPWTFGQGTKLEIKRTVAAPSVFIFPPSDEQLKSGTASVVCLLNNFYPREAKVQWKVDNALQSGNSQESVTEQDSKDSTYSLSSTLTLSKADYEKHKVYACEVTHQGLSSPVTKSFNRGEC |
